From US20200024322A1 (Eli Lilly, published 2020)
Positions count from the first letter of the chain named. Numbered stars: 1 amine (or outer) side, 2 acyl side, 3 side chain; on linkers, the order of the positions; unused ones are H or OH. Square brackets hold non-standard residues; d marks the D form. Side chains are listed from the residue outwards. Ends that are not written are not given here. * marks the point of attachment. C20 diacid = O=C(O)CCCCCCCCCCCCCCCCCCC(=O)*; γGlu = O=C(O)[C@H](CCC(=O)[*:2])N[*:1]; AEEA = NCCOCCOCC(=O)O; Aib = CC(C)(N)C(=O)O

T1: human GIP receptor (human, UniProt P48546 22-466)
T1 construct: whole, on cells; Used as crude membranes of stably transfected CHO cells; also called hGIPR
T1 sequence (looked up): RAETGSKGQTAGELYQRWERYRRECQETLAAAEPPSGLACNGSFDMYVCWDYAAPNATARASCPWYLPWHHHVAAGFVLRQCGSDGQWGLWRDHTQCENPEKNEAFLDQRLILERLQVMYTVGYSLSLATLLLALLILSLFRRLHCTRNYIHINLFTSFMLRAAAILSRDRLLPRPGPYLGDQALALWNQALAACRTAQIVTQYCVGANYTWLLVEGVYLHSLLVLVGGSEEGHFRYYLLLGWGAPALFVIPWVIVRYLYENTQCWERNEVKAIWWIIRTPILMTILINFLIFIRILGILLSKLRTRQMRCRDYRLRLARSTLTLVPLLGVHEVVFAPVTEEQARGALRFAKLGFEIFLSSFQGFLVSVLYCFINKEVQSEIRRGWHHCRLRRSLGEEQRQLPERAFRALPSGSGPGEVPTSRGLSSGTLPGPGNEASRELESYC

B1: Example 100 (peptide)
peptide: YXEGTXTSDYSIXLDEKAQXAFIEYLIEGG
modifications: Aib2; αMeF6; αMeL13; K17((2-[2-(2-Amino-ethoxy)-ethoxy]-acetyl)2-(γ-Glu)-CO-(CH2)18-CO2H); Aib20; C-terminal NH2
B2: Example 103 (peptide)
peptide: B1 peptide with A21E
modifications: Aib2; αMeF(2F)6; αMeL13; K17((2-[2-(2-Amino-ethoxy)-ethoxy]-acetyl)2-(γ-Glu)-CO-(CH2)18-CO2H); Aib20; C-terminal NH2
B3: Example 99 (peptide)
peptide: B1 peptide with E16K
modifications: Aib2; αMeF6; αMeL13; K17((2-[2-(2-Amino-ethoxy)-ethoxy]-acetyl)2-(γ-Glu)-CO-(CH2)18-CO2H); Aib20; C-terminal NH2
B4: Example 88 (peptide)
peptide: YPEGTFTSDYSILLDKK([AEEA-AEEA-γGlu-C20 diacid])AQ[Aib]AFIEYLIEGGPSSGAPPPS-NH2
modifications: N-terminus assumed
SMILES: CC[C@H](C)[C@H](NC(=O)[C@H](CC(C)C)NC(=O)[C@H](Cc1ccc(O)cc1)NC(=O)[C@H](CCC(=O)O)NC(=O)[C@@H](NC(=O)[C@H](Cc1ccccc1)NC(=O)[C@H](C)NC(=O)C(C)(C)NC(=O)[C@H](CCC(N)=O)NC(=O)[C@H](C)NC(=O)[C@H](CCCCNC(=O)COCCOCCNC(=O)COCCOCCNC(=O)CC[C@H](NC(=O)CCCCCCCCCCCCCCCCCCC(=O)O)C(=O)O)NC(=O)[C@H](CCCCN)NC(=O)[C@H](CC(=O)O)NC(=O)[C@H](CC(C)C)NC(=O)[C@H](CC(C)C)NC(=O)[C@@H](NC(=O)[C@H](CO)NC(=O)[C@H](Cc1ccc(O)cc1)NC(=O)[C@H](CC(=O)O)NC(=O)[C@H](CO)NC(=O)[C@@H](NC(=O)[C@H](Cc1ccccc1)NC(=O)[C@@H](NC(=O)CNC(=O)[C@H](CCC(=O)O)NC(=O)[C@@H]1CCCN1C(=O)[C@@H](N)Cc1ccc(O)cc1)[C@@H](C)O)[C@@H](C)O)[C@@H](C)CC)[C@@H](C)CC)C(=O)N[C@@H](CCC(=O)O)C(=O)NCC(=O)NCC(=O)N1CCC[C@H]1C(=O)N[C@@H](CO)C(=O)N[C@@H](CO)C(=O)NCC(=O)N[C@@H](C)C(=O)N1CCC[C@H]1C(=O)N1CCC[C@H]1C(=O)N1CCC[C@H]1C(=O)N[C@@H](CO)C(N)=O
B5: Example 79 (peptide)
peptide: XAEGTFTSDYSILLDKKAQXAFIEYLIEGGPSSGAPPPS
modifications: N-terminal Ac; D-Tyr1; K17((2-[2-(2-Amino-ethoxy)-ethoxy]-acetyl)2-(γ-Glu)-CO-(CH2)18-CO2H); Aib20; C-terminal NH2
B6: Example 138 (peptide)
peptide: YXEGTXTSDYSIXLDKKAQXSFIEYLIEGGPSSGAPPPS
modifications: Aib2; αMeF6; αMeL13; K17((2-[2-(2-Amino-ethoxy)-ethoxy]-acetyl)2-(γ-Glu)-CO-(CH2)18-CO2H); Aib20; C-terminal NH2
B7: Example 91 (peptide)
peptide: B5 peptide with X1Y, A2X, E3X
modifications: Aib2; γ-Glu3; K17((2-[2-(2-Amino-ethoxy)-ethoxy]-acetyl)2-(γ-Glu)-CO-(CH2)18-CO2H); Aib20; C-terminal NH2
B8: Example 76 (peptide)
peptide: B6 peptide with S21A, F22X
modifications: Aib2; αMeF6 (printed aMeF); αMeL13; K17((2-[2-(2-Amino-ethoxy)-ethoxy]-acetyl)2-(γ-Glu)-CO-(CH2)18-CO2H); Aib20; αMeF22; C-terminal NH2
B9: Example 83 (peptide)
peptide: B5 peptide with X1Y, A2X, E28X
modifications: Aib2; K17((2-[2-(2-Amino-ethoxy)-ethoxy]-acetyl)2-(γ-Glu)-CO-(CH2)18-CO2H); Aib20; D-Glu28; C-terminal NH2
B10: Example 78 (peptide)
peptide: B5 peptide with A2X
modifications: D-Tyr1; Aib2; K17((2-[2-(2-Amino-ethoxy)-ethoxy]-acetyl)2-(γ-Glu)-CO-(CH2)18-CO2H); Aib20; C-terminal NH2
B11: Example 89 (peptide)
peptide: B5 peptide with X1Y, A2X, E3X
modifications: Aib2; Aad3; K17((2-[2-(2-Amino-ethoxy)-ethoxy]-acetyl)2-(γ-Glu)-CO-(CH2)18-CO2H); Aib20; C-terminal NH2
B12: Example 75 (peptide)
peptide: B6 peptide with X6F, S21A, L26X
modifications: Aib2; αMeL13; K17((2-[2-(2-Amino-ethoxy)-ethoxy]-acetyl)2-(γ-Glu)-CO-(CH2)18-CO2H); Aib20; αMeL26; C-terminal NH2

How the values were obtained:
[1] = biological target: T2, human GLP-1 receptor (human, UniProt P43220 24-463); assay: SPA, [125I]-GLP-1 displacement, hGLP-1R membranes
T2 construct: whole, on cells; Used as crude membranes of stably transfected HEK293 cells; also called hGLP1R; hGLP-1R

[2] = biological target: T1, human GIP receptor; assay: SPA, [125I]-GIP displacement, hGIPR membranes
[3] = biological target: T3, human glucagon receptor (human, UniProt P47871 26-477); assay: SPA, [125I]-Gcg displacement, hGcgR membranes
T3 construct: whole, on cells; Used as crude membranes of stably transfected HEK293 cells; also called hGcgR; hGLcgR
T3 sequence (P47871 26-477): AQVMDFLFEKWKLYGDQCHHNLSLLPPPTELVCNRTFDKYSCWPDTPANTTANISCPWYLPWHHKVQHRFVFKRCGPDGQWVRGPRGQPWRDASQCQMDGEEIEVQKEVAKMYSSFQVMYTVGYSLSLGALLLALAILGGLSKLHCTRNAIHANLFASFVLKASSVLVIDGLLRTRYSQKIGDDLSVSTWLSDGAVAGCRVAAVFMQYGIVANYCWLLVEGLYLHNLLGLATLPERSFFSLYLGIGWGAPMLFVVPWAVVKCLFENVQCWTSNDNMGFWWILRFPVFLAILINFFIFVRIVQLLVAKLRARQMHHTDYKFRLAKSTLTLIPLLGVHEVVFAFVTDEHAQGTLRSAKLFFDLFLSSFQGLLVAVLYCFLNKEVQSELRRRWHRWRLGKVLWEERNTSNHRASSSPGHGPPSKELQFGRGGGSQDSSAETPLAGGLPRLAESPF

| Binder | Ki [1] | Ki [2] | Ki [3] |
| --- | --- | --- | --- |
| B1 | 4.13 nM | 0.115 nM | 44 nM |
| B2 | 6.68 nM | 0.0645 nM | 40.3 nM |
| B3 | 1.15 nM | 0.027 nM | 23.6 nM |
| B4 | 4.24 nM | 0.0717 nM | 545 nM |
| B5 | 2.69 nM | 0.0313 nM | 429 nM |
| B6 | 0.926 nM | 0.0295 nM | 61.2 nM |
| B7 | 5.23 nM | 1.8 nM | 540 nM |
| B8 | 2.64 nM | 0.0659 nM | 14.4 nM |
| B9 | 7.1 nM | 0.142 nM | 320 nM |
| B10 | 3.94 nM | 0.163 nM | 215 nM |
| B11 | 2.64 nM | 0.045 nM | 324 nM |
| B12 | 24.4 nM | 0.103 nM | 283 nM |
